Measured values reported in patent US20120053119A1, “THERAPEUTIC METHOD FOR INCREASING PANCREATIC BETA CELL MASS” (priority 2009, published 2012).

Target: SDF-1 receptor CXCR4 on INS-1 clonal beta cells (UniProt O08565)
Assay: cell-based or functional assay

SDF-1 receptor CXCR4 on INS-1 clonal beta cells, sequence (O08565 whole entry): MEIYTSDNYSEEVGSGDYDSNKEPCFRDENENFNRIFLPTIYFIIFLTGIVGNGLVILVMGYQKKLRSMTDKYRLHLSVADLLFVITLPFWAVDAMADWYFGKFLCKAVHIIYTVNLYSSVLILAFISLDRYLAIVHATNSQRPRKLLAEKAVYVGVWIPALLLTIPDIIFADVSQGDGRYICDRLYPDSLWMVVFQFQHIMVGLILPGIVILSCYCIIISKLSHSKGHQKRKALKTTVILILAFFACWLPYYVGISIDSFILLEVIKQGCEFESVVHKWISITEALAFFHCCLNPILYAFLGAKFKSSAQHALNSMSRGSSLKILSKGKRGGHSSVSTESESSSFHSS

Wnt signaling reporter assay (TOPflash/FOPflash luciferase) in INS-1 cells: 0.4 nM
Substance: stromal cell-derived factor-1 (SDF-1) (ligand)
